The assay addresses T1, GST-FD (Arabidopsis thaliana (Mouse-ear cress), UniProt Q84JK2).
T1 chain: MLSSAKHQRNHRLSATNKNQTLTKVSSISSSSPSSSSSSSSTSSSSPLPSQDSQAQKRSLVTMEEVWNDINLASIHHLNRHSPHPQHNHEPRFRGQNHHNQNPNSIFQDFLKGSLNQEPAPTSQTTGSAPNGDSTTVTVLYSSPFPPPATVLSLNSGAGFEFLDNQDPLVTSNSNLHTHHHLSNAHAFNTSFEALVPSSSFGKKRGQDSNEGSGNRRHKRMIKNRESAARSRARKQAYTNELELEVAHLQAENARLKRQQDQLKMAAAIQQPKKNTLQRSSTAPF
The assay can be described thus: GST pull-down.

B1: Trx-His-CPK33 (protein)
chain: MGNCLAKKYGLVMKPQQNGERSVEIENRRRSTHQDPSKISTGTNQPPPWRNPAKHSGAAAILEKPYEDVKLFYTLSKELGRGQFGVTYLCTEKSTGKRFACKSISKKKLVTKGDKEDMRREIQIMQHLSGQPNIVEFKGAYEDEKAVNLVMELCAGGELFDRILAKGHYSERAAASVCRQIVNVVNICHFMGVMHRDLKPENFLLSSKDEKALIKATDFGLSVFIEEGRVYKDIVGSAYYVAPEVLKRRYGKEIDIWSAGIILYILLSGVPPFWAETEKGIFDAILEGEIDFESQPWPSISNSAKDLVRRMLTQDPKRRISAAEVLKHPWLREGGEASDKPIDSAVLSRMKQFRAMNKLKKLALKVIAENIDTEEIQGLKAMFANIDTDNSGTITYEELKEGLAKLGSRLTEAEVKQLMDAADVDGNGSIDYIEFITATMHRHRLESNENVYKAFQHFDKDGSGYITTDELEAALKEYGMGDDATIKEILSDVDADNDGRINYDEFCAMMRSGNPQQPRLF
For B1, the binding result is given as “binds”.

B2: Trx-His-CPK6 (protein)
chain: MGNSCRGSFKDKIYEGNHSRPEENSKSTTTTVSSVHSPTTDQDFSKQNTNPALVIPVKEPIMRRNVDNQSYYVLGHKTPNIRDLYTLSRKLGQGQFGTTYLCTDIATGVDYACKSISKRKLISKEDVEDVRREIQIMHHLAGHKNIVTIKGAYEDPLYVHIVMELCAGGELFDRIIHRGHYSERKAAELTKIIVGVVEACHSLGVMHRDLKPENFLLVNKDDDFSLKAIDFGLSVFFKPGQIFKDVVGSPYYVAPEVLLKHYGPEADVWTAGVILYILLSGVPPFWAETQQGIFDAVLKGYIDFDTDPWPVISDSAKDLIRKMLCSSPSERLTAHEVLRHPWICENGVAPDRALDPAVLSRLKQFSAMNKLKKMALKVIAESLSEEEIAGLRAMFEAMDTDNSGAITFDELKAGLRRYGSTLKDTEIRDLMEAADVDNSGTIDYSEFIAATIHLNKLEREEHLVSAFQYFDKDGSGYITIDELQQSCIEHGMTDVFLEDIIKEVDQDNDGRIDYEEFVAMMQKGNAGVGRRTMKNSLNISMRDV
For the molecule B2, the binding result was “binds”.

(Values after PMC4321167 (2015).)
